According to the DeepSol protein solubility set:

assay: soluble on expression in E. coli; label from the status in PepcDB or PDB records

Q: With “MLVNKVEICGVNTSKLPVLTNEQKKELFERMHKGDTSAREEFIKGNLRLVLSVIQRFNNRGEYVDDLFQVGCIGLIKAIDNFDVTQNVKFSTYAVPMIIGEIRRYLRDNNAIRVSRSLRDIAYKALQAKEKLTNQNSKEPTIEEIAKELGLPKEEVVFALDAIQDPISLFESVYHDGGDAIYVMDQVKDEKNNDENWLEGIALSEAMRKLNDREKLILNLRFFDGRTQMEVAEEIGISQAQVSRLEKTALMHMRKYI” as the sequence, how does the “soluble on expression in E. coli” value read?
A: not soluble

Q: With “MYNSATVIYQNLLKSTPKKASEYYYYLGDICWRKEKTDSAKYYFMEGIKTDETYAMNYVGIGIITMKSNATEGQRSFDKALQMTSQKNSQVLNAIGEYYILEADKAELPKGIALLKKSTEIDAKNAMSWILLGDAYGKQAEGSKQAESYGKAANLFHSVPLLKMKYGKMYAAARNKDLSIKYYNEGLAADPTYGPIYRELGDLYNRFRQYDLAIQNYKKYLTYIDSNDDVEFRYADFLFKNNNYAEAIEVFNKLEAKKYNSPYIYNRRAVCYYELAKYDLAQKDIETYFSKVNATKAKLEHHHHHH” as the sequence, how does the “soluble on expression in E. coli” value read?
A: not soluble

Q: Which “soluble on expression in E. coli” value does the source give for “MGDCDIEGKDGKQYESVLMVSIDQLLDSMKEIGSNCLNNEFNFFKRHICDANKEGMFLFRAARKLRQFLKMNSTGDFDLHLLKVSEGTTILLNCTGQVKGRKPAALGAAQPTKSLEENKSLKEQKKLNDLCFLKRLLQEIKTCWNKILMGTKEH” here?
A: soluble

Q: With “MDAGLDARGKGWARAITRLCDEHLYYLMLYFRWFDEDSWRVLKPVFFGSLPFGVRDAVAWAMRRKVRATLRAQGLGVHGRDELLAFARDDLDALDGLLGQVPYYGGEHPCSADAAAYGILANLIEATLDTPLSHVARGYPRLVAYCERMRERVWSELEHHHHHH” as the sequence, how does the “soluble on expression in E. coli” value read?
A: not soluble

Q: For “MRGSHHHHHHMSDEEHTFETADAGSSATYPMQCSALRKNGFVVIKSRPCKIVDMSTSKTGKHGHAKVHLVAIDIFTGKKLEDLSPSTHNMEVPVVKRNEYQLLDIDDGFLSLMNMDGDTKDDVKAPEGELGDSLQTAFDEGKDLMVTIISAMGEEAAISFKEAARTD”, which “soluble on expression in E. coli” value is on record?
A: soluble

Q: With “TVKSFVMRAGRMTEGQQRGLDLGWPKFGLELSDEVQDFDAIFGRQAPRTFEIGFGMGHSTLEMAAAAPDIDFIGVEVHKPGVGALLNGLLTQGLGNVRVYSCDALEVLRHCVADASLDRLLLFFPDPWHKKRHHKRRIVQPEFAELVRRKLKVGGVLHMATDWEPYAEHMLDVMSAAPGYRNQAEDGRFVPRPQERPVTKFERRGERLGHGVWDLKFER” as the sequence, how does the “soluble on expression in E. coli” value read?
A: not soluble

Q: With “MSLNIQAIDTRHGTANQHSFSNGNCLPYTGVPFGMNFYAPQTTDQKGSWWFHPEDRTFQGYRVTHQPSPWMGDFSHLLMTPVSGSLSELSLFHAQSSYRPEESLFSPVEINLTQLRYQITSQLIPSMYGGILTIDYQQKDNHLLLTLPGRYQVKQLDDHQVAVKVINYSGCEDPDFSFYFVLHFEQPLTKWFAPSSGEDGKILLSFGNIAQQVVHFSSSFISEKQAQLNLAREISLRSTEMLQQGIADWHNYFDRLKVTHENPEHTKTFYHTLYRTFLFPQTFYELDENQQPIHYDTFSQTVRPGVLYTNNGFWDTYKTVYPLFSLIAQEKYEEMLEGFLNSYNETGFLPKWLSPDERGLMPGTLIDAVIADAAVKKIRPDLMPQFLEAMKKGATQQSERENYGRQGTLDYLKYGYVPSTYHESVNHTLDYAYSDFCISQVAKTLNDSETATFYRQQALNYQQLFNPETGFMQAKDTEGNFRPDFLDIRWGKDYAEGSAWQSSFAVYQDFAGLIKLYGSELAFEKKLIQLCNQAPNFNVEGYGFEIHEMSEMAAIDFGQLAISNQPSFHYPFLFSYIGKPEMAQPLLKQLMQTFDASPTGYPGDEDNGSMSAWYIFNSLGFYPVTPGTGEYVIGMPLVQTAEVKLSNGKQLTIQTSPNKVQQQFIHEIQLNQEKHTAPYFTHQELLNGGTLDYQLGIVPNPQNTAERPFSLSTEKEGGSHHHHHH” as the sequence, how does the “soluble on expression in E. coli” value read?
A: soluble

Q: Which “soluble on expression in E. coli” value does the source give for “SGNLLKVLTCTDLEQEPNFFLDFENAQPTEAERETWEEVDVVLKDALGILDELQAYKGAGQEIREAIQNPNDEALQDQAWAAVVPLVGKLKKFYEFSQRLEAALHSLLRALTSETYDDPTQHLEREQALAKQFAEILHFTLRFDELKMTNPAIQNDFSYYRRTLSRMRINNVPAEGENEVNNELANRISLFYADATPMLKTLSDGTTKFVSENKNLPIENTTDVLSTMASVCKVMLETPEYRSRFSSEETVSFCLRVMVGVIILYDYVHPVGAFAKSSKIDMKGCIKVLKDQPPNSVEGLLNALRYTTKHLNDESTTKTIKSMLQ” here?
A: soluble

Q: For “MGSDKIHHHHHHMPSERASSFDIMLWVLSGCSELLYGTQALPLTGKVDRIFGPAREPRDVRVLNYLELADRLDRSGIGTAVDHQRAALSETDIEVETTPWQEGHPAWALGGNIAFNDPMFREFDIAHCNMIGPGSVAVARYAAQADIPLVLHAHVTREDFRDSFRGSNLIAPVLGRYLRWFYSQADLVLCPSEYTKGILESYPVDAPIRPMTNGVDIDALAGHEDMREDYRRRYDLDGMVVFAVGNVFERKGLTTFCELAQETEHDFAWFGPYDAGPQASKTVSRWVNNPPENVTFTGWVEDIRGAFGAGDVYLFPTKAENQGIAVLEAMACGKAVVLSDIPVFREYYEDGHDCLICADEAEFREALERLAENPDLRERLGENARETAREHSLDRVSRRLVETYEELA”, which “soluble on expression in E. coli” value is on record?
A: not soluble

Q: With “MGSDKIHHHHHHMSKRLMPSTTALQCFEAAARHLSFTRAAQELHLTQSAVSKQVAQLEDMLSHSLFQRIRRRLHLTPAGALYLTEVNKILTQIDISSRYILSYGDETEVLRIATQPTFGARWLVPRLKGFGDRYPRIHLDVRNELEPFDLVQAKADVAFFFGQGTWPGATCIELFSEEVVPVCSPQLLASHRFDSAQALTEHRLLQCVSRPEAWHEWFLGLGLHSQNSYHGPRFDTFYLCIRAAISGCGIALIPRYLVAEELSEGKLVVAWDHPVASNGRHFIAHAEHAAEVPKIRAFVQWIRERVAEGD” as the sequence, how does the “soluble on expression in E. coli” value read?
A: not soluble

Q: For “MTNLVDKAAHSFATQNVVFQTLATASGKLVGVVTLNVEKALNALDLDMVRAMTVQLNLWKKDPLIACVVLDGSGEKAFCAGGDVRALYHASVAAKGQVTEVAKVFFEEEYRLDYLLHTYGKPVLVWGDGIVMGGGLGLMAGASHKVVTETSRIAMPEVTIGLYPDVGGSYFLNRMPGKMGLFLGLTAYHMNAADACYVGLADHYLNRDDKELMFDAMATLDWSDSPALNHQRLDTMINELSNQVDIPKGDSVLAESQEMIDRLMAGSLTDIVTRMSTLSTDEAWLSKACATMLAGSPISWHLAYIQTQLGTKLSLAQCFKWELTVSVNVCAKGDFCEGVRALLIDKDKQPKWQFADVQSVPNSVIEDILTSPWGEEHPLSQLS”, which “soluble on expression in E. coli” value is on record?
A: soluble

Q: For “MTYFVVEVTDQEIRREKDKARELRRSRWWQTVISRRTCHWCGGDFPPEELTMDHVVPIVRGGKSSRGNVVPACKECNNRKKYLLPLEWEEYLEKARNGGEQLEHHHHHH”, which “soluble on expression in E. coli” value is on record?
A: soluble

Q: For “SKYGLQDSDEEEEEHPSKTSTKKLKTAPLPPASQTTPLQMALNGKPAPPPQVEKKGQLEHHHHH”, which “soluble on expression in E. coli” value is on record?
A: soluble

Q: Which “soluble on expression in E. coli” value does the source give for “MNCVCGSGKTYDDCCGPLLARTRSAASPEALMRSRYAAYALKDFDYIVETTDPERRDLFDHDVNRAWMEESDFLELRVLGSSEKGSRGTVEFIARFRRGGGPEQSHHERSQFRKARGRWYFSEGEAVD” here?
A: soluble

Q: For “SSGGGTETPVACDAAQGGKKRDSLGTPGAAHLIIKDLGEIHSRLLDHRPVTQGEIRYFVKEFEEKRGLRELRVLKNLENTIQETNECLLPKCRETMECGLGETLQRLQAANDSICRLQQREQERKKVINDYLTASEKRRLVQWEEFVSGQPQRRAEVDEEHRRAVERLREQYAAMEKDLAKFSTF”, which “soluble on expression in E. coli” value is on record?
A: soluble

Q: With “MSLTLISLQTFAAAWEEKLYNPMPDAEDVVLPMPCDGAMVFRKVYIPLAGPLDDYPVNIGGDNAEYGYVEQTHPAFIAGSFTTEKNAKSRYYLLAKYEMTVLQYSALTQAECPAPSNKQRLPVVSLSWMQAMEAADKYNIWLRENAADKLPKEDGVAGFLRLPTEVEWEFAARGGLNVSTAEFRDLRYPMPEGVNAYEWFAGTQSANGQLQLSGLLKPNPLGLHDMLGNVDEMMFEPFRLNKLDRQHGQAGGYVVRGGDFRTAQGELRSSLRKERNYYDAKAAATSKTTGVRLALASSTLTSRERVSSIETSWKEGHHHHHH” as the sequence, how does the “soluble on expression in E. coli” value read?
A: not soluble

Q: With “MHFETVIGLEVHVELKTDSKMFSPSPAHFGAEPNSNTNVIDLAYPGVLPVVNKRAVDWAMRAAMALNMEIATESKFDRKNYFYPDNPKAYQISQFDQPIGENGYIDIEVDGETKRIGITRLHMEEDAGKSTHKGEYSLVDLNRQGTPLIEIVSEPDIRSPKEAYAYLEKLRSIIQYTGVSDVKMEEGSLRCDANISLRPYGQEKFGTKAELKNLNSFNYVRKGLEYEEKRQEEELLNGGEIGQETRRFDESTGKTILMRVKEGSDDYRYFPEPDIVPLYIDDAWKERVRQTIPELPDERKAKYVNELGLPAYDAHVLTLTKEMSDFFESTIEHGADVKLTSNWLMGGVNEYLNKNQVELLDTKLTPENLAGMIKLIEDGTMSSKIAKKVFPELAAKGGNAKQIMEDNGLVQISDEATLLKFVNEALDNNEQSVEDYKNGKGKAMGFLVGQIMKASKGQANPQLVNQLLKQELDKRMAGDPLEHHHHHH” as the sequence, how does the “soluble on expression in E. coli” value read?
A: not soluble

Q: For “QSATARPMAIALGVAEPAPRGFLLIGANRVAREIGQALARYDRRVLMTDSNWEYISQVRMMGLDYYYGNPISSHADDNLNMIGIGQVVALTPDQHFNIMACMQFVDEFGEDKVHCLQKVKTNGNGSEKHSVAQEYHGKLLMGGNVSYTQLASLLSRGAEIKHTKLSENFTYQDYLEHHKTNLVIPLFNVEDKGKIQFCDDPDQFAPSTTSTIVSLILPESAQ”, which “soluble on expression in E. coli” value is on record?
A: not soluble

Q: With “GSHMTIQKVHGREVLDSRGNPTVEVEVTTEKGVFRSAVPSGASTGVYEACELRDGDKKRYVGKGCLQAVKNVNEVIGPALIGRDELKQEELDTLMLRLDGTPNKGKLGANAILGCSMAISKAAAAAKGVPLYRYLASLAGTKELRLPVPCFNVINGGKHAGNALPFQEFMIAPVKATSFSEALRMGSEVYHSLKGIIKKKYGQDAVNVGDEGGFAPPIKDINEPLPILMEAIEEAGHRGKFAICMDCAASETYDEKKQQYNLTFKSPEPTWVTAEQLRETYCKWAHDYPIVSIEDPYDQDDFAGFAGITEALKGKTQIVGDDLTVTNTERIKMAIEKKACNSLLLKINQIGTISEAIASSKLCMENGWSVMVSHRSGETEDTYIADLVVALGSGQIKTGAPCRGERTAKLNQLLRIEEELGAHAKFGFPGWS” as the sequence, how does the “soluble on expression in E. coli” value read?
A: soluble

Q: Which “soluble on expression in E. coli” value does the source give for “MGSDKIHHHHHHLPTSVSPISYQLTVKTYLPGYGYTADKNNLTFEGQVLIELNITKSIKKVSLNSKDLNYTEEFIKKSSILVNGKSIAFTLDDKQSTHEKIFFNLDETVEPTTSATLKVAFGAPLRTDMSGLYQTTYTNSKGESKMAAVTQMEPVYARRMVPCFDEPAYKATWTVTVIHPNKTVAVSNGIEDKVEDGQPGFIISTFKPTPRMSSYLLAIFISEFEYNEATTKSGVRFRVWSRPEEKNSTMYAVEAGVKCLEYYEKYYNISFPLPKQDMVALPDFSAGAMENWGLITYRESALLYDPRIYSGSQKRRVAVVIAHELAHQWFGNLVTLKWWNDLWLNEGFATLVEYLGTDEISDGNMRMREWFTMDALWSALAADSVASTHPLTFKIDKAMEVLDSFDSVTYDKG” here?
A: not soluble

Q: For “MGSDKIHHHHHHMTIMILREIIDELSYQLKQRRIINVCVSPAYTSVMLDDQSIGISHTITDGEIEGAGEIIGKNAYDVVINNLDSNLQRSLSLAILNALGSMIDFTQGDPINLYSGGKLCVFGFSPQLSYSNFDSVIVYDFMSTENKKVGNTEIKPYSSLSREVCSTALIFASSIVNNTIDRIISQISANHLILTGISSVDAPITLKNHGFEVLGKLFPVEKYRVFRTICEGGSNKLLSKYIMRYFKKL”, which “soluble on expression in E. coli” value is on record?
A: not soluble
